The values that follow come from paper PMC5150656.

What is called Kd is the equilibrium constant for the complex coming apart. As usually defined, the stoichiometry N is a count of units in the complex or per binding partner.

Assay [1] deals with CaV1.2 holochannel tagged with EYFP on its carboxy-terminus, co-expressed with β2a and α2δ subunits (UniProt P15381). Briefly: FRET or BRET; FRET 2-hybrid (3^3-FRET and E-FRET) in single live HEK293 cells, room temperature, elevated cytosolic Ca2+: Tyrode's bath with 10 mM Ca2+ and 4 μM ionomycin; relative (effective) dissociation constants Kd,EFF; stoichiometry ratio ν = EA,max/ED,max. On the technique in general: Bioluminescence resonance energy transfer reports proximity on the nanometre scale.

For assay [2], the target named is EYFP tagged myosin Va peptide containing a single IQ domain (IQ6) (mouse) (UniProt Q99104). Briefly: FRET or BRET; FRET 2-hybrid (3^3-FRET and E-FRET) in single live HEK293 cells, room temperature, basal (resting) Ca2+: Tyrode's bath with 2 mM Ca2+; relative (effective) dissociation constants Kd,EFF; stoichiometry ratio ν = EA,max/ED,max.
Assay [3] has as its target EYFP tagged myosin Va two tandem IQ domain peptide (IQ5-6) (mouse) (UniProt Q99104). The description is as above.
Assay [4] deals with EYFP tagged myosin Va four tandem IQ domain peptide (IQ3-6) (mouse) (UniProt Q99104). Described as above.
For assay [5], the target named is NaV1.4 with EYFP fused to its carboxy-terminus (rat) (UniProt P15390). Described as above.
The target in assay [6] is EYFP tagged myosin Va three tandem IQ domain peptide (IQ4-6) (mouse) (UniProt Q99104). The assay is described as above.
In assay [7] the target is EYFP-tagged full length myosin Va neck domain peptide containing six IQ domains (IQ1-6) (mouse) (UniProt Q99104). The assay is described as above.
Assay [8] deals with CaV1.2 holochannel tagged with EYFP on its carboxy-terminus, co-expressed with β2a and α2δ subunits (UniProt P15381). Described as above.
Assay [9] concerns the target EYFP tagged myosin Va five tandem IQ domain truncation (IQ2-6) (mouse) (UniProt Q99104). Described as above.
For assay [10], the target named is ECFP tagged myosin Va peptide containing a single IQ domain (IQ6) (mouse) (UniProt Q99104). As to the kind of experiment: FRET or BRET; FRET 2-hybrid in live HEK293 cells co-expressing a CFP-tagged and a YFP-tagged partner; 3^3-FRET (EA) and E-FRET (ED) efficiencies from single cells, room temperature; stoichiometry from the ratio EA,max/ED,max.
Assay [11] concerns the target ECFP fused myosin Va peptide containing three tandem IQ domains (IQ4-6) (mouse) (UniProt Q99104). The description is as above.
Assay [12] has as its target ECFP fused myosin Va peptide containing five tandem IQ domains (IQ2-6) (mouse) (UniProt Q99104). The assay is described as above.
Assay [13] concerns the target EYFP-tagged myosin Va peptide containing three tandem IQ domains (IQ4-6) (mouse) (UniProt Q99104). The assay is described as above.
The target of assay [14] is YFP-fused myosin Va peptide containing five tandem IQ motifs (IQ2-6) (mouse) (UniProt Q99104). The description is as above.
Assay [15] addresses EYFP-tagged myosin Va peptide containing two IQ domains (IQ5-6) (mouse) (UniProt Q99104). The assay is described as above.
Assay [16] concerns the target EYFP-fused myosin Va peptide containing four tandem IQ domains (IQ3-6) (mouse) (UniProt Q99104). Described as above.

Chain of CaV1.2 holochannel tagged with EYFP on its carboxy-terminus, co-expressed with β2a and α2δ subunits (P15381 whole entry, stated change not applied, chain 1 of 3, other chains not shown, the tested form may be a part): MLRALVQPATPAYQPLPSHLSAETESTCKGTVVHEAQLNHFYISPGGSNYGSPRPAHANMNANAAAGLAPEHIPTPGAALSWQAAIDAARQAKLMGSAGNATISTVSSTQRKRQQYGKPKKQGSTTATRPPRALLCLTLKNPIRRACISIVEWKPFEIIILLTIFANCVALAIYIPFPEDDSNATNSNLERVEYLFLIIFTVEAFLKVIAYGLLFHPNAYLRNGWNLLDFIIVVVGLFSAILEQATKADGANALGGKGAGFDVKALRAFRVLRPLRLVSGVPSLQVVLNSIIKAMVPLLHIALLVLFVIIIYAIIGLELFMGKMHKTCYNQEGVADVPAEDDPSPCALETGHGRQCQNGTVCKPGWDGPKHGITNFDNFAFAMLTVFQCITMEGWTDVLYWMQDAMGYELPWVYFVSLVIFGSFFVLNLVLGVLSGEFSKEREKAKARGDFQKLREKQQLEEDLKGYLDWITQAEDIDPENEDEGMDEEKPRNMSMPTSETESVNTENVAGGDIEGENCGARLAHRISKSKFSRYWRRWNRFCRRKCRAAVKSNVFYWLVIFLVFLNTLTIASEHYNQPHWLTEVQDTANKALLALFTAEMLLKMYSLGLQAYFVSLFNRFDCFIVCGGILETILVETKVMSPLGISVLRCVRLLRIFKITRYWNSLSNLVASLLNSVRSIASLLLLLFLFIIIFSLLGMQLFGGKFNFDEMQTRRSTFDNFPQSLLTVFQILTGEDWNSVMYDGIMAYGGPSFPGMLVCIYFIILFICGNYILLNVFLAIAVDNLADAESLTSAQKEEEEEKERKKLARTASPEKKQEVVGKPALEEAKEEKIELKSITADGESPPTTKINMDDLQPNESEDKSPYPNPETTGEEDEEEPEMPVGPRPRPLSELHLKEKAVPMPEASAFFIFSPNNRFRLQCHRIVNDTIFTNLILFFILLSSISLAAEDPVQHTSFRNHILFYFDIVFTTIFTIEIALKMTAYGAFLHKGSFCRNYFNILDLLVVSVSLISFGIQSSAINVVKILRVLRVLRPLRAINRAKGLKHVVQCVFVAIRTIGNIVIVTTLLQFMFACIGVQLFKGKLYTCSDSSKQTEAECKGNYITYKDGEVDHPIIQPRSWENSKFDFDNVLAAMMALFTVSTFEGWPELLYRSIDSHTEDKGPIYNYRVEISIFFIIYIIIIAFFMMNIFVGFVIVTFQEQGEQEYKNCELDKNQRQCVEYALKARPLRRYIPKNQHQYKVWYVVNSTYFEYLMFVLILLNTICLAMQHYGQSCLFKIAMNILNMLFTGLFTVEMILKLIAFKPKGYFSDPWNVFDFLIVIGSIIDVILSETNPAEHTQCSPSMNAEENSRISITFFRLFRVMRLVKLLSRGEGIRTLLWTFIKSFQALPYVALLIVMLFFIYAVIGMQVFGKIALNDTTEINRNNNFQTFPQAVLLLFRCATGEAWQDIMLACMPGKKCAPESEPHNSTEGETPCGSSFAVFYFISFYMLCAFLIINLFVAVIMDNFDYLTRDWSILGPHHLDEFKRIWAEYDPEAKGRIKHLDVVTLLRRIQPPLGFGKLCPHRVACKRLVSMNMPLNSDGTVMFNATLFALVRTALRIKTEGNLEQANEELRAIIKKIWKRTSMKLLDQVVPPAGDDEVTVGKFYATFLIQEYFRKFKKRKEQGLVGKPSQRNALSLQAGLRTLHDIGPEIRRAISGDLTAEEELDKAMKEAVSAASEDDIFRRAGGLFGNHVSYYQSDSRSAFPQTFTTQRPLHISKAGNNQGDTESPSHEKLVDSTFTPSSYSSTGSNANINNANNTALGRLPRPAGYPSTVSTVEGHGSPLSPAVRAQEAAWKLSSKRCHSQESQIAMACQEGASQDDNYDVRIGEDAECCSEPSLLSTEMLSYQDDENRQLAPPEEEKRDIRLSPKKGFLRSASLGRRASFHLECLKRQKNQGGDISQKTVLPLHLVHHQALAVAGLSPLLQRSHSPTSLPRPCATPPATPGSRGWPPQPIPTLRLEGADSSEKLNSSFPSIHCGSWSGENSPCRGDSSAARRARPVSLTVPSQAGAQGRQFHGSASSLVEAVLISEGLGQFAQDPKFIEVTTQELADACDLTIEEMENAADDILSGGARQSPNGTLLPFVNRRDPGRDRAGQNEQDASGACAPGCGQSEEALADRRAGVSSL
Chain of CaV1.2 holochannel tagged with EYFP on its carboxy-terminus, co-expressed with β2a and α2δ subunits (P54290 25-1091, stated change not applied, chain 3 of 3, other chains not shown, further chain): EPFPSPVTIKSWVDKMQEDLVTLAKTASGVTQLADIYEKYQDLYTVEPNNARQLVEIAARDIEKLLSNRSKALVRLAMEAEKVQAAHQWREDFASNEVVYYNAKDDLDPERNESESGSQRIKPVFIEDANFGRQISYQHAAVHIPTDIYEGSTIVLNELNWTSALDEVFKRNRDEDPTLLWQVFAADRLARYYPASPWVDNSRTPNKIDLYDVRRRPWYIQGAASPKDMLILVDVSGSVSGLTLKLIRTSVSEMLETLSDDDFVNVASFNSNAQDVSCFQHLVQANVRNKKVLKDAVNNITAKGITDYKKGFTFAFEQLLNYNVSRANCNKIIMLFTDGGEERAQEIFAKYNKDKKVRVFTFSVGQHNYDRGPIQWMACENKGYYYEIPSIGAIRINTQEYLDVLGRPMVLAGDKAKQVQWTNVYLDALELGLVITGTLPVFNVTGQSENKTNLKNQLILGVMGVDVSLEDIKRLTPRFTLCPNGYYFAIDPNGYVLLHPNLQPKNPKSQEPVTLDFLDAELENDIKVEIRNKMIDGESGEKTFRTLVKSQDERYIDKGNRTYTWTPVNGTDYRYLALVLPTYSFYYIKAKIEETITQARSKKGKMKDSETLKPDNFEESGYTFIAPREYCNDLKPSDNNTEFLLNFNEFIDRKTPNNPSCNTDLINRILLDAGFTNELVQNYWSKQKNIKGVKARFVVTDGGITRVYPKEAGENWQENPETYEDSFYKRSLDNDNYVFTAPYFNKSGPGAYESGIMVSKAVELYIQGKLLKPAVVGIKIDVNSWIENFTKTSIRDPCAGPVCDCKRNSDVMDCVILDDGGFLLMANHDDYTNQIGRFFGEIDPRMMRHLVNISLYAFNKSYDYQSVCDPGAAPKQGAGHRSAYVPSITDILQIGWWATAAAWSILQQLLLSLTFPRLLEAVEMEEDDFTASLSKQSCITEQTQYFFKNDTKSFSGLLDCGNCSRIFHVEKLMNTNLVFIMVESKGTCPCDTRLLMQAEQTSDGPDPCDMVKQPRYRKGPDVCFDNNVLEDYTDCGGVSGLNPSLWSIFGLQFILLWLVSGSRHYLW
Chain of EYFP-tagged full length myosin Va neck domain peptide containing six IQ domains (IQ1-6) (mouse) (Q99104 766-920): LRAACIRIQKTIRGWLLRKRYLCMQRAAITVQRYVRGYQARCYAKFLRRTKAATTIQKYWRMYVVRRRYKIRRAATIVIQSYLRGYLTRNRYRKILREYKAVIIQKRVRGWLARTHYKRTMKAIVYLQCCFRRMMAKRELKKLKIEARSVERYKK
Chain of EYFP tagged myosin Va three tandem IQ domain peptide (IQ4-6) (mouse) (Q99104 837-920): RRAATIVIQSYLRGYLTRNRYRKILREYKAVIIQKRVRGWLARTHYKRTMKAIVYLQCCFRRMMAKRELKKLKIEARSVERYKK
Chain of ECFP fused myosin Va peptide containing three tandem IQ domains (IQ4-6) (mouse) (Q99104 837-920): as above
Chain of EYFP-tagged myosin Va peptide containing three tandem IQ domains (IQ4-6) (mouse) (Q99104 837-920): as above
Chain of EYFP tagged myosin Va four tandem IQ domain peptide (IQ3-6) (mouse) (Q99104 814-920): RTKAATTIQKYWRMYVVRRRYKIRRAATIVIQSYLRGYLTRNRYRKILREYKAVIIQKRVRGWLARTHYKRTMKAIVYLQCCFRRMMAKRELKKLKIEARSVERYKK
Chain of EYFP-fused myosin Va peptide containing four tandem IQ domains (IQ3-6) (mouse) (Q99104 814-920): as above
Chain of YFP-fused myosin Va peptide containing five tandem IQ motifs (IQ2-6) (mouse) (Q99104 789-920): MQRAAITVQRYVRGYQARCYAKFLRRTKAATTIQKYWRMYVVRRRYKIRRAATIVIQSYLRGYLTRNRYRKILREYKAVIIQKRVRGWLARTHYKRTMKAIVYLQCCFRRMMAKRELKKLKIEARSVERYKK
Chain of ECFP fused myosin Va peptide containing five tandem IQ domains (IQ2-6) (mouse) (Q99104 789-920): as above
Chain of EYFP tagged myosin Va five tandem IQ domain truncation (IQ2-6) (mouse) (Q99104 789-920): as above
Chain of ECFP tagged myosin Va peptide containing a single IQ domain (IQ6) (mouse) (Q99104 885-920): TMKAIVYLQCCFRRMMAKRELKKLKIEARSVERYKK
Chain of EYFP tagged myosin Va peptide containing a single IQ domain (IQ6) (mouse) (Q99104 885-920): as above
Chain of EYFP-tagged myosin Va peptide containing two IQ domains (IQ5-6) (mouse) (Q99104 862-920): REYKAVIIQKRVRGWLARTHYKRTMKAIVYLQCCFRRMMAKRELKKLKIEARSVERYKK
Chain of EYFP tagged myosin Va two tandem IQ domain peptide (IQ5-6) (mouse) (Q99104 862-920): as above

For “ECFP-tagged calmodulin (CaM) (from UniProt P0DP23 1-149) (natural protein)”, the stoichiometry N (CaM per channel (donors per acceptor)) was 1.94 in assay [1], 1.14 in [5] and 1.1 in assay [8]. The stoichiometry N (CaM per peptide (donors per acceptor)) was 0.97 in [2]; 2 in assay [3]; 4 in assay [4]; 3 in assay [6]; 5.91 in assay [7]; 5 in [9]. For the same substance, the Kd in assay [8] amounted to 115 nM.

With “EYFP-tagged calmodulin (from UniProt P0DP23 1-149) (natural protein)”, the stoichiometry N was 1 in assay [10], 3 in [11] and 5 in [12].

On to “ECFP-tagged calmodulin (from UniProt P0DP23 1-149) (natural protein)”, for which the stoichiometry N in assay [13] is 3; in assay [14] it was 5; in assay [15], 2; in assay [16], 4.
